Data on 23 sequences can be found in a protein production outcome set (Wang et al. 2014).
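Note: failed if final PepcDB status was selected cloned or expressed and not failed if soluble or beyond.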

The data set is described as follows: label from the status in PepcDB records.
Turning to “MISTWHKNNNSPRLTVSARIVAKRQNTTYHNQPNAGDTSGAHGYHTTSSTTYYVTFQVESGDRIEMSVSGSEYGKLTEGDEGKLTFQGTRYLQFNMENLEHHHHHH”, the protein production result is listed as “failed”. For the sequence “MATEPLTHPTAAPKRTRDLLAGLSIAGLLLPEAVAYSSIAALPPQAGVIALFAGLLCYGLLGTSRFAIVSATSSSAAVLAAATLSLAGGDAQLRLSLAFALVLLTGVFFLLAGLFRLGGVTAFIAKPVLRGFAFGLALTIVLKQFATVVGVHLSTGNLVRFLPQLLEQWPQWNWAGAAVAAVALLVLGICSRIPYVPGGLVAVVIGIGAGQWFNLPAHGVDLIGVIELKLEVPSLPQLPFADWLRLGELAFALVMILYAESYGSISSFALKHGDRVSSNRDLLALGASNLLSGLFHGMPAGAGYSATSANEAAGARSRLAGLTAAAVMLLIVLTVLPYIALTPEPVLAAIVMYALGHGLSLQPLGRYFIWRRDRVLVICAVSAVLVLGVLDGLLLSVGISILLLLRQMSAADIQILGQLGSGHDFVDLSRHPQARQVPGVLILRPGEALFFANAERILGGALRLIRHVQAPIHSIILSLEESPDLDGTSIEALDEFFRQVSLEHKHLALARLKHEAKDALALLPSSREYQVLLSGTSVDDTLQESLRGWKAGAFSQA”, the protein production entry is “failed”. As to “MKSWQIELLYDGECPLCLREVNFLRSKDQGRGLVNFVDIAQPDYNPLDHGGVSFEDAMARIHGVKADGSVVKNVAVFREVYEILGIGWLYAPTRWPIIGPLVDRIYDFWADLRLSWTGRSSLAEILAQREKGMCATDGCALPVTSGVEGKP”, the protein production entry is reported as “failed”.

As to “MTEQAQYRDPRLVILYDRLNRWGADDDFFLALANETPGCRLLDLGCGTGRLTTALARAGHQVTGLEPARASLEVAQRKPGAEAVCWLQGSAQDAPTAAFDLCLMTAHVAQVFVEDDAWQDVLQHIHRALVPGGRLSFDMRDPAARAWDTWDSAGKRERLTLLDGSEAETWCDVLDVAGPIVSGPVVHFAEHTRFLPGQDVLTSTSRLRFRREDELRASLQAAGFAVEQVYGGWHGEPVGTGCGELVVVARRPG”, the protein production entry was “failed”.

Take “MIEQELTYQDLRIPSSEIYEAMGYKDSIPDQMVIDETNTLLKRVIPLLRPRFAFFFMEGTLDIEKETLSVQSIHPPTVNPIQDTIPTRSPEQNTFSTQSKSTVFSVGKTIARQLRGSEAFVFFAATAGTEFEVFQHTLQQEEDMVKIYIADSLGSIIAEKTADCMEVALAEYIREKNWKHTNRYSPGYCGWHVSEQQKLFPLFPIAAPCGIRLTDSSLMVPIKSVSGVIGTGTNVRKLEYTCGLCTYENCYRKRKHR”: the protein production entry was “not failed”. Turning to “MLAGADKVFLYAKPEQIEAFVAAAQSAGVRQVVLLSSVSVVMATSEQNPIARMHRTVELAIERSGLDWTFIRPGMFATNARWWWGESIRGEGVVRLPYPEAQNAPVHEKDMAALAVTALTEPGHSHQAYTVHGSESLTLRRQVEHIGEALGRPIRVETVSVEQAREEFAEKAPSNVAEALLRMWAAADGVPAPVSVIVDRITGRPAHTFAQWAADHADDFR”, the protein production entry is “failed”. “MIIYILINIAIVLLILGFDLYRHRFRQLKFSSILLSVLINSMIDIFAINQFNFITMFTVTLFMIWTLLQIYLNFKLYPFVISDQKFIAIILAIVISLLQFITDKSSTQSVYMSIPYLSPTIFIIGAILLFVGTFKIDEVERLSLFRKIKRPMTTGTIIIILSLISTMILTPFWYVFLIIYSLLIGFILWQGVFFIKDKK”: the protein production entry is “failed”. For the sequence “MISFLLSLVLLIVGYFTYGKFVDKTFGTNDSIETPAESMADGVDYVPMSWPRIFLIQFLNIAGLGPIFGAIAGALWGPVAFLWIVFGCIFAGAVHDYFTGVLSIRNKGVSVAELVGKYLGEIPRKIMVIFSVVLLILVGVVFLTGPADLLKTLTGIDRDIFIVIIVVYYIAATVLPVDKVIGKIYPIFGLCLLIMAVGIGAGIVIEGYNIPEIQLANFHPEGTPIFPFLFITIACGAISGFHATQSPIMARCVKKESEARKVFYGAMIAEGVIALVWAAAAMSFFGDTNGLQEILKAGGPATVVNTISNTVMGKVGAVLAILGVVACPISSGDTAFRSARLTIADAFKLKQDKVIDRFKIAIPLFVVGIALTFIDFGIIWRYFSWSNQTLAMIMLWAASAYMLKAHNNYWITLVPAVFMSAVTCSYILQAPEGFRLNATFSNIAGVVFALVLFGIFIKYCKKENNENCEIVEIEEVKEVIKNK”, the protein production entry was “failed”. The entry for “MQANRSQLHSPPGTGSSEDASTPQCVHTRLTGEGSCPHSGDVHIQINSIPKECAENASSRNIRSGVHSCAHGCVHSRLRGHSHSEARLTDDTAAESGDHGSSSFSEFRYLFKWLQKSLPYILILSVKLVMQHITGISLGIGLLTTFMYANKSIVNQVFLRLNFFKSYFGPFELLGSILDCWNYRLHSEILFHGLKMPYFIGAFFHHAF” is “failed”.

Take “MRSSQAIDFERIPEMEDKWRKEITAMTVTLQDKRKAIQNDEILRGVHPKSHGCLDAEFTVNRDIAPQFQVGLFAQPGKCFRARIRYSNADVLKRADLEKGQDATGARFLNHGSRGMAIKVLDVGAPVLLEDGCARNQDFLMVNTPEFAFRNVRDYLRLTKALCASADGADPLLFFLPGELLKRGMMDMSGSLLPAPAGEPPQNAGLRALFEANRAFFDDFDAEDMQGVISAAGVVGKIQSTPVRNPLFAPYFSAASFRFGKDRVMRFSVVPLQSEEMAADMASDAFEDFSDDYLSQALALSVATNEPIKLSFRIQIAHEEDIVNDIDGMIENAAKTWDEDQFSHTEVAQITINPPCPSAELVDTCKPLLFTPWHAVVDFEPLGGINRLRKPVYSTSAAFRRSVLEHHHHHH”: the protein production result is listed as “failed”. Take “MLSYPGELQGCRVILYLVGHHLYLIPTTISMCGCPEEGAYMRRLWGYISIITATIFFGISATLDKIMLSSMHPVTIGAYTYIIAGIFLFFIRETPLREHVLNAINRKGESEARIKRNDYLILLLTALLSTVIAPLLFLTGLGDTTAVNASLILNVEVLFIILLGYLIFRETLQLKDFLGIVLIILGAVYLLTEGDFSTILRNVAVTGNFLVMAAAFFWSLDTVLSKFLSRKRDLIFISGVKSSVGGFVLLIIMLILGINTELPLEMLPYALGVSVFSIGCSFILIYIAIREIGASMVGALFPLSSLFGAIFAFIILREPFSIMQGISGIVMLTGVFILYWNGK”: the protein production entry is reported as “failed”. In the case of “MGHHHHHHSHMKPSGEDQAALAAGPWEECFQAAVQLALRAGQIIRKALTEEKRVSTKTSAADLVTETDHLVEDLIISELRERFPSHRFIAEEAAASGAKCVLTHSPTWIIDPIDGTCNFVHRFPTVAVSIGFAVRQELEFGVIYHCTEERLYTGRRGRGAFCNGQRLRVSGETDLSKALVLTEIGPKRDPATLKLFLSNMERLLHAKAHGVRVIGSSTLALCHLASGAADAYYQFGLHCWDLAAATVIIREAGGIVIDTSGGPLDLMACRVVAASTREMAMLIAQALQTINYGRDDEK”, the protein production result is listed as “failed”. With “TFGEKLLNAASTRGRLCVGIDPHESLLTSWGLPVNVDGLAEFSRACVEAFADTVALVKPQVAFYERFGSAGFAILEETIQTLRERGCLVVSDAKRGDIGSTMAGYASAWLDPASPLSSDAVTVSPYLGFHSLDPVFELAEQHGRGVFVLAATSNPEARELQDQQNADGVSISQQIVDQAAALNAPYMAQGKAGNIGVVIGATLSKPPRLSTLGGAILMPGVGAQGGTASDVDEIAGDMAHLAFPNVSRSILATGPDIAEMKNSVAKNAADFPGFP”, the protein production result is recorded as “not failed”. For “MRSYAIGDIHGHLSLLQEIHGRIAADRARTGDDEAPVVHIGDLVDRGPDSRGVVEYLRQGIEQGENWVVLKGNHDRMFAGFLRDPAHQDPGLRGDLSWLHPRLGGGPTLESYGVAHAADRPVAIVHREAVALVPAEHVAFIEALPAVYRRDEALFVHAGIRPGVPLAEQIEDDLVWIREPFLSDPRDHGMLVVHGHTAIDAVTHYGNRLNLDSGAAYGGPLSAVVIEGRSVWQLGPEGRRPIALEHHHHHH”, the protein production entry is recorded as “failed”. “MLQKPVQLLLWVAICLLVLLTVYVFFMLDMLWSPFWLVIKTIFIPLIISIFISYLLLPVTEWLHGKGLPRTLSILVIYVLFFGGIGWALYKGVPVLIVQLTDLSENIPMFAETYNGLLLHVHNHTDDWPDGMHHRIDKMIRQTEAFFAGTIEGAISGIRNVLDYFLIAATIPFLVFYMVKDIELMKKTVWYLTPKSWRKRGSAFLRDVDDSLGDYIRGQLLVCLILGVIAGISFWVFGLPYPLILGLISGVTNVIPYFGPFIGAVPALLIAMTISVKAVLVVVITVFILQFMEGNILSPFIVGRSLKMHPVVIMLALLAGGELAGIVGMILAVPATAVLKVMMIHFLRMRTEH”: the protein production entry is “not failed”. “HVETIKNTFLNPKSNKVLVVAHRGNWRSAPENSTAAIDSAIAMKVDIVEIDIQKTKDGQLILMHDNTLDRTTTGKGEIKNWTLADIKKLKLKDKDGKVTNYVVPTLEEALLTAKGKIMVNLDKAYDIFDDVYAILEKTETQNQVIMKGGQPIETVKREFGSYLDKVLYMPVIDLGNKEAEKIITDYLKELRPAAFEIIYSDPKNPLPPKIKQLLFKKSLIWYNTLWGSLAGNHDDNLALTDPEKSYGYLIEQLGARILQTDQPAYLLDYLRKKGWHN”: the protein production entry is “not failed”.

Consider “MSIISLDTRVKVGNTDYALSELFELVDQQTSDYGTSLNALKQAVVSGDLTIIQQVLQNSAAALRSLASLQNTLEKVLTLDLADPAQPEHVFIVEDSRGATELKLYKSHYTIGKADSCDIRLHSIYASRQHATLVRFLTENGEVRYRLIDGDPETSRRSANGTYVNNRSITECDLKHYDQILFGADVKATYFYLSPQFRSLTGLQDPTVSLSPDSTTEFEA”, for which the protein production result is listed as “failed”.

On to “MGLKIIHNEGIEMKLQLKADLGLLLVTFFWGASILLTKVGLEGIEEYNLIALRFIIAFLLSGLIFYKHLFKIDFKTVKYAFILASVLFIVYIFATFGTKYTSVSNAGFLLCLTVIFIPILSAIFLKHIPEQKVIVGIILTIIGIGLLTLTSEFKIGNGDIFCILSALFYAIHVIITGSVTKHVNSIALGVVQLGFVGLFSLIFSFIIETPKLPSTINSWLIILALSIFCTAVAFIVQVIAQQYTTPTHTGLIFSLEPVFSAGFAFVFTGETLTRKGYLGATLILVSVLIAEVDFKSLLRVNYKKNVE”, for which the protein production entry was “failed”.

Take “LVRQEETLRLAIDAADVGTWDHDLETGEVRLSDRCYAMFGVTPGEPVTHETLMPFTHPADVVRVQEAVARALDPAIRADYAIEFRVNGRDDHVERWLSAKGEVSFDNEGRPRRFLGAVVNITERKRAELHLRLLVNELNHRVKNSLATIQAIAAQSFNGQRDMDEAKEAFSNRIVALAEAHDLLTRENWEGAEMHDVAARVAALHGGDARFELSGVAIRLSPKTALSLSMALHELATNAVKYGALSVPEGVVRIVWDMAPEP”: the protein production entry is recorded as “failed”. Next, “FRPHFLQAPGDLTVQEGKLCRMDCKVSGLPTPDLSWQLDGKPVRPDSAHKMLVRENGVHSLIIEPVTSRDAGIYTCIATNRAGQNSFSLELVVAAKE”: “not failed”; “MQFGVTKESQCHYLTDQEERLVVALPNDLENLNADAYQQLMQYGFRRSHNDVYRPHCRLCSACQSLRVVVPEFRFSKNQKRILKKNDDLTLQIKQQPEAEYSQLFSQFIEQRHADGEMYPPDPDKFWKWIDCDWLTPELLEWRNASNELMIVSVVDRTVDAMSAVYTFFHPDEEKRSPGTFAVLEMIRLAQEREVARLYLGYQIDDCKKMNYKTRFAPYERLVGNHWKKELKSHTLKAQNKD”: “failed”.

Turning to “LTVTVTHSNEKHDLHVTSQQGSSEPVVQDLAQVVEEVIGVPQSFQKLIFKGKSLKEMETPLSALGIQDGCRVMLIGKKN”, the protein production result is reported as “not failed”.

“MMTLNAFIEKLSTQPELIEFTETMAVIESHYEFTPTEFANGNTVNLADQNNGSCKIFAFALLNQLSVDQTLACFGQYYRQDVLENPQGDDHQNIRNFMVTGWAGVQFKAQALQAK”: the protein production result is reported as “failed”.
